The chains are these.
B1: Twister Ribozyme (parent)
chain: AACACUGCCAAUGCCGGUCCCAAGCCCGGAUAAAAGUGGAGGGGGCGG

The series covers variants of B1. The series is described as follows: self-cleavage, relative activity (ratio to wild type); higher = more cleavage; co-transcriptional.
With AACACUGCCAAUGCCGGUCCCAAGCCCGGAUAAAAGUUGAGGGAGCGG [G38U G44A], the self-cleavage is 0.811.
As to AACACUCCCAAUGCCGGUCCCACGCCCGGAUAAAAGUGGAGGGGGCGG [G7C A23C], the self-cleavage is 0.0613.
As for AACACUGCCAAUGCCGGUCCCAAGCCCAGAUAAAAGGGGAGGGGGCGG [G28A U37G], the self-cleavage was determined as 0.331.
For AACACUGACAAUGCCGGUCCCAAGCCCGGAUAAAAGUGUAGGGGGCGG [C8A G39U], the self-cleavage was found to be 0.123.
With AACACUGCCAAUGCCGGUCCCAAGCCCGGUUAAAAGUGGAGGGGGAGG [A30U C46A] the figure was 0.872; with AGCACUGACAAUGCCGGUCCCAAGCCCGGAUAAAAGUGGAGGGGGCGG [A2G C8A], 0.153.
Turning to GACACUGCCAAUGCCGAUCCCAAGCCCGGAUAAAAGUGGAGGGGGCGG [A1G G17A], the self-cleavage came out at 0.367.
In the case of AACACUGCCAAUGCCGGUCCGAAGCCCGGAUGAAAGUGGAGGGGGCGG [C21G A32G], the self-cleavage stood at 0.0254.
With AACACUGCCAAUGCGGGUCCCAAGCCCGGAUAAAAGUGGAGGGAGCGG [C15G G44A] the figure was 0.0802; with AACACUGCCAAUGCAGGUCCCAAGCCCGGCUAAAAGUGGAGGGGGCGG [C15A A30C], 0.648.
As for AACACUGCCUAUGCCGGUCCCAAGCCCGGAAAAAAGUGGAGGGGGCGG [A10U U31A], the self-cleavage is 0.694.
AAGACUGCCAAUGCCGGUCCCAAGACCGGAUAAAAGUGGAGGGGGCGG [C3G C25A]: the self-cleavage came out at 0.0782.
With AACACUGCCAAUGCCGGUUCCAAGUCCGGAUAAAAGUGGAGGGGGCGG [C19U C25U], the self-cleavage worked out at 0.623.
For AACACUGCCAAUGCCGGUCCCAAGCCCGGAUGAAAGUGGAGGGAGCGG [A32G G44A], the self-cleavage is 0.929.
In the case of AACACUGCCAAUGCCGGUCCCAAGCCCGGCAAAAAGUGGAGGGGGCGG [A30C U31A], the self-cleavage was determined as 0.687.
Under UACACUGCCAAUGCCGGUCCGAAGCCCGGAUAAAAGUGGAGGGGGCGG [A1U C21G] stands 0.0652.
With AACACUGCCAAUGCCGGUCCCAAGCCCGGACAAAAGUGGAAGGGGCGG [U31C G41A] the figure was 0.539; with AACACUGCCAAUGCCGGUCCCAAGCCCGGAGCAAAGUGGAGGGGGCGG [U31G A32C], 0.946; with AACAGUGGCAAUGCCGGUCCCAAGCCCGGAUAAAAGUGGAGGGGGCGG [C5G C8G], 0.0701.
AACACUGCCAAUGCCGGUCCCAAGCCCGGAUAAACGUGGAGGAGGCGG [A35C G43A]: the self-cleavage is 0.235.
Under AACACUGCCAAUGCCGGUCCCAAGCCCGGAUAAAAGUUGAGCGGGCGG [G38U G42C] stands 0.177.
As to AACAGUGCCAAUGCCGGUCCCAAGCCCGGAUUAAAGUGGAGGGGGCGG [C5G A32U], the self-cleavage was determined as 0.515.
For GACACUGCCAAUGCCGGUCCCAAGCCCGGAUAAUAGUGGAGGGGGCGG [A1G A34U], the self-cleavage was 0.24.
For the variant AACACUGCCAAUGCCGGUCCCAAGUCCGGAUAAAAGUGGAGGGGCCGG [C25U G45C], the self-cleavage was found to be 0.247.
With AACACUGCCAAUGCCCGUCCCAAGCCAGGAUAAAAGUGGAGGGGGCGG [G16C C27A], the self-cleavage is 0.684.
With AACAUUGCCAAUGCCGGUCCCAAGCCCGGAGAAAAGUGGAGGGGGCGG [C5U U31G] the figure was 0.65.
Regarding AACACUGCCAAUGCCGGUCCCAAGCCCGGAUAAUAGUGGAGGGGGAGG [A34U C46A], the self-cleavage amounted to 0.76.
AACACUGCCAAUACCGGUCCCAAGCCCGGAUAAAAGUAGAGGGGGCGG [G13A G38A]: the self-cleavage was found to be 0.581.
AGCACUGCCAAUUCCGGUCCCAAGCCCGGAUAAAAGUGGAGGGGGCGG [A2G G13U]: the self-cleavage was 0.0873.
AACACUGCCAAUGCCGGGCCCAAGCCCGGAUAAAAGUGGCGGGGGCGG [U18G A40C]: the self-cleavage was 0.0607.
For the variant AACACUGCCAACGCCGGGCCCAAGCCCGGAUAAAAGUGGAGGGGGCGG [U12C U18G], the self-cleavage is 0.0285.
As for AACCCUCCCAAUGCCGGUCCCAAGCCCGGAUAAAAGUGGAGGGGGCGG [A4C G7C], the self-cleavage was found to be 0.0903.
For the variant AACACUGCCAAUGCCGGUCCCAAGCCCGGAUAAUAGUAGAGGGGGCGG [A34U G38A], the self-cleavage came out at 0.654.
Under AACACUGCCAAUGCGGGUCCCAAGCCCGGAUAAAAGUGGAGGUGGCGG [C15G G43U] stands 0.104.
Consider AACACUGCAAAUGCCGGUCCCAAGCCCGGAGAAAAGUGGAGGGGGCGG [C9A U31G], for which the self-cleavage came to 0.777.
Regarding AACACUGCCAAUGGCGGUCCCAAGCCCGGAUAAACGUGGAGGGGGCGG [C14G A35C], the self-cleavage worked out at 0.244.
On to AACACUGCCAAUGCCGGUCCCAAGCCCGGAUUAAAGUGGAGGGAGCGG [A32U G44A], for which the self-cleavage was found to be 0.919.
Regarding AACACUGCCAAUGCAGGUCCCAAGCCCGGACAAAAGUGGAGGGGGCGG [C15A U31C], the self-cleavage was found to be 0.718.
AACACUGGCAAUGCCGGUCCCAAGCCCGGAUAAAAGUGGAGGGGACGG [C8G G45A]: the self-cleavage amounted to 0.207.
AACACUGCCACUGCCGGUCCCAAGCCCGGAUUAAAGUGGAGGGGGCGG [A11C A32U]: the self-cleavage was determined as 0.831.
For the variant AACACUGCCAAUGCCGGUCGCAGGCCCGGAUAAAAGUGGAGGGGGCGG [C20G A23G], the self-cleavage was 0.0348.
AACACUGCCUAUGCCGGUCCCAAGCCCGGAUAAAAGUGGAGGGGGAGG [A10U C46A]: the self-cleavage worked out at 0.913.
Turning to AACACUGCCAAUGCCGGUCCCAAGCCAGGAUAAAAGUGGAGGGGGCUG [C27A G47U], the self-cleavage stood at 0.186.
Consider AACACUGCCAAUGCCGGUCCCAAGUCCGGGUAAAAGUGGAGGGGGCGG [C25U A30G], for which the self-cleavage was determined as 0.911.
As for AACACUGCCAAUGCUGGUCCCAAGUCCGGAUAAAAGUGGAGGGGGCGG [C15U C25U], the self-cleavage worked out at 0.914.
AGCACUGCCAAUGCCGGUCCCAAGCGCGGAUAAAAGUGGAGGGGGCGG [A2G C26G]: the self-cleavage was found to be 0.035.
As for AACACUGACAAUGCCGGUCCCAAGCCCGCAUAAAAGUGGAGGGGGCGG [C8A G29C], the self-cleavage is 0.0825.
Under AACACUGCCAAUGCCAGUCCCAAACCCGGAUAAAAGUGGAGGGGGCGG [G16A G24A] stands 0.0954; under AACACUGCCGAGGCCGGUCCCAAGCCCGGAUAAAAGUGGAGGGGGCGG [A10G U12G], 1.07; under AACACUGCCAAUGCCGGUCCCAAGCCCGGAUAAAAGUGGAGCGGGCGA [G42C G48A], 0.516.
In the case of AACAGUGCCAAUGCCGGUCCCAAGCCCGGAUAAAAGUGGACGGGGCGG [C5G G41C], the self-cleavage was 0.114.
With AACACUGCCAAUGCCGGUCCCAAGCCCGGAUAAAAGCGGAGGGGGAGG [U37C C46A] the figure was 0.71; with AACGCUGCCAAUGCCGGUCCCAAGCCCGGAUAAAAGUGGAGGGGACGG [A4G G45A], 0.955; with AACACUGCCAAUGCCGGUCCCAAGCACGUAUAAAAGUGGAGGGGGCGG [C26A G29U], 0.214.

Values taken from the RNAGym collection of RNA variant scans (doi:10.7554/elife.80360).
